Where a chain is given by its changes, count along the chain named.

Here are results for 13 molecules from US20140271457A1 (AbbVie / Abbott, published 2014).

The assay concerns the target Recombinant Human IL-13 (human, UniProt P35225 35-146, limits assumed). The assay is described as follows: Biacore SPR. The procedure:
The BIACORE assay (GE, Healthcare Piscataway, N.J.) determined the affinity of antibodies or DVD-Ig with kinetic measurements of on-rate and off-rate constants. Binding of antibodies or DVD-Ig proteins to a target antigen (for example, a purified recombinant target antigen) was determined by surface plasmon resonance-based measurements with a Biacore T200 using running HBS-EP+buffer from GE Healthcare at 25° C. All chemicals were obtained from GE Healthcare or otherwise from a different source as described in the text. For example, approximately 5000 RU of goat anti-mouse IgG, (Fcγ), fragment specific polyclonal antibody (Pierce Biotechnology Inc, Rockford, Ill.) diluted in 10 mM sodium acetate (pH 4.5) was directly immobilized across a CM5 research grade biosensor chip using a standard amine coupling kit according to manufacturer's instructions. Unreacted moieties on the biosensor surface were blocked with ethanolamine. Modified carboxymethyl dextran surface in flowcell 1 was used as a reference surface. Rate constants were derived by making kinetic binding measurements at different antigen concentrations ranging from 0.8-100 nM. Binding was recorded as a function of time and kinetic rate constants were calculated. In this assay, association rate was evaluated for 5 min and dissociation was monitored for 10 min. For kinetic screening analysis, rate equations derived from the 1:1 binding model were fitted simultaneously to association and dissociation phases of all injections (using global fit analysis with Rmax fit locally to account for capture variations) with the use of Biaevaluation software. Purified antibodies or DVD-Ig proteins were diluted in HEPES-buffered saline for capture across goat anti-mouse IgG specific reaction surfaces. Antibodies or DVD-Ig proteins to be captured as a ligand were injected over reaction matrices at a flow rate of 5 μl/minute. The association and dissociation rate constants, kₒₙ (M⁻¹ s⁻¹) and koff (s⁻¹) were determined under a continuous flow rate of 50 μl/minute. Rate constants were derived by making kinetic binding measurements at different antigen concentrations ranging from 0.8-100 nM. Binding was recorded as a function of time and kinetic rate constants were calculated. In this assay, association rate was evaluated for 5 min and dissociation was monitored for 10 min.

Sequence of Recombinant Human IL-13 (P35225 35-146 limits assumed): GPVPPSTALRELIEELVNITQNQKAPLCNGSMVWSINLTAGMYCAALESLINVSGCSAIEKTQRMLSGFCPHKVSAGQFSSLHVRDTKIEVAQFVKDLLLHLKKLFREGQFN

B1: DVD3086 (bispecific antibody, IgG1)
VH: EVQLVESGGGLVQPGGSLRLSCAASGFTFSNYGVTWVRQAPGKGLEWVSMIWADGSTHYASSVKGRFTISRDNSKNTLYLQMNSLRAEDTAVYYCAREWQHGPVAYWGQGTLVTVSSASTKGPEVQLVQSGAEVKKPGASVKVSCKASGYTFTTYGVSWVRQAPGQGLEWMGEIYPGNYNTYYNEKFRGRVTMTTDTSTSTAYMELRSLRSDDTAVYYCARWRTSYFSDYGYFDYWGQGTTVTVSS
VL: DIQMTQSPSSLSASVGDRVTITCRASQLVSSAVAWYQQKPGKAPKLLIYWASARHTGVPSRFSGSGSGTDFTLTISSLQPEDFATYYCQQHYKTPFTFGQGTKLEIKRTVAAPSVFIFPPDVVMTQSPLSLPVTLGQPASISCRSSQSLVHSHGNTYLHWYQQRPGQSPRLLIYTVSNRFSGVPDRFSGSGSGTDFTLKISRVEAEDVGVYYCSQSTHVPYTFGGGTKVEIKR
notes: DVD-Ig; wt hIgG1 + kappa constants
B1: the Kd is < 15 pM, the koff is < 1e-06 s⁻¹ and the kon was 65000 M⁻¹ s⁻¹.

B2: DVD3096 (bispecific antibody, IgG1)
VH: B1 VH with T35E, M50G, S61D, S62T, G65S
VL: B1 VL with R24K, A53T, R54L, K93R
notes: as for B1
Consider B2, for which the Kd is 0.76 pM, the koff was determined as 5.3e-08 s⁻¹ and the kon was found to be 70000 M⁻¹ s⁻¹.

B3: DVD3113 (bispecific antibody, IgG1)
VH: EVQLVQSGAEVKKPGASVKVSCKASGYTFNNYGIIWVRQAPGQGLEWMGWINTYTGKPTYAQKFQGRVTMTTDTSTSTAYMELSSLRSEDTAVYYCARKLFNTVAVTDNAMDYWGQGTTVTVSSGGGGSGGGGSEVQLVQSGAEVKKPGASVKVSCKASGYTFTTYGVSWVRQAPGQGLEWMGEIYPGNYNTYYNEKFRGRVTMTTDTSTSTAYMELRSLRSDDTAVYYCARWRTSYFSDYGYFDYWGQGTTVTVSS
VL: DIQMTQSPSSLSASVGDRVTITCRASQDIENYLNWYQQKPGKAPKLLIYYTSRLQSGVPSRFSGSGSGTDFTLTISSLQPEDFATYFCQQGNTQPPTFGQGTKLEIKRGGSGGGGSGDVVMTQSPLSLPVTLGQPASISCRSSQSLVHSHGNTYLHWYQQRPGQSPRLLIYTVSNRFSGVPDRFSGSGSGTDFTLKISRVEAEDVGVYYCSQSTHVPYTFGGGTKVEIKR
notes: as for B1
With B3, the Kd is 15 pM, the koff is 1.2e-06 s⁻¹ and the kon came out at 75000 M⁻¹ s⁻¹.

B4: DVD3143 (bispecific antibody, IgG1)
VH: EVQLVESGGGLVQPGGSLRLSCAASGFTFSNYGVTWVRQAPGKGLEWVSMIWADGSTHYASSVKGRFTISRDNSKNTLYLQMNSLRAEDTAVYYCAREWQHGPVAYWGQGTLVTVSSGGGGSGGGGSEVQLVQSGAEVKKPGASVKVSCKASGYTFTSYWMHWVRQAPGQGLEWIGNINPKGGSNIYNEKFQGRVTMTRDTSISTAYMELSRLRSDDTAVYYCARLDYFGDSFDLWGQGTTVTVSS
VL: DIQMTQSPSSLSASVGDRVTITCRASQLVSSAVAWYQQKPGKAPKLLIYWASARHTGVPSRFSGSGSGTDFTLTISSLQPEDFATYYCQQHYKTPFTFGQGTKLEIKRGGSGGGGSGDIQMTQSPSSLSASVGDRVTITCRASQGIRNYLNWYQQKPGKAPKLLIYYASNLEVGVPSRFSGSGSGTDYTLTISSLQPEDFATYYCQQDNRFPYTFGGGTKVEIKR
notes: as for B1
Take B4: the Kd was found to be 370 pM, the koff was determined as 6.2e-05 s⁻¹ and the kon worked out at 170000 M⁻¹ s⁻¹.

B5: DVD3153 (bispecific antibody, IgG1)
VH: B4 VH with T35E, M50G, S61D, S62T, G65S
VL: B4 VL with R24K, A53T, R54L, K93R
notes: as for B1
Take B5: the Kd amounted to 450 pM, the koff worked out at 8.2e-05 s⁻¹ and the kon was found to be 180000 M⁻¹ s⁻¹.

B6: DVD3092 (bispecific antibody, IgG1)
VH: EVQLVQSGAEVKKPGASVKVSCKASGYTFTTYGVSWVRQAPGQGLEWMGEIYPGNYNTYYNEKFRGRVTMTTDTSTSTAYMELRSLRSDDTAVYYCARWRTSYFSDYGYFDYWGQGTTVTVSSASTKGPSVFPLAPEVQLVESGGGLVQPGGSLRLSCAASGFTFSNYGVTWVRQAPGKGLEWVSMIWADGSTHYASSVKGRFTISRDNSKNTLYLQMNSLRAEDTAVYYCAREWQHGPVAYWGQGTLVTVSS
VL: DVVMTQSPLSLPVTLGQPASISCRSSQSLVHSHGNTYLHWYQQRPGQSPRLLIYTVSNRFSGVPDRFSGSGSGTDFTLKISRVEAEDVGVYYCSQSTHVPYTFGGGTKVEIKRTVAAPDIQMTQSPSSLSASVGDRVTITCRASQLVSSAVAWYQQKPGKAPKLLIYWASARHTGVPSRFSGSGSGTDFTLTISSLQPEDFATYYCQQHYKTPFTFGQGTKLEIKR
notes: as for B1
For B6, the Kd is 44 pM, the koff amounted to 2.5e-05 s⁻¹ and the kon was 580000 M⁻¹ s⁻¹.

B7: DVD3114 (bispecific antibody, IgG1)
VH: EVQLVQSGAEVKKPGASVKVSCKASGYTFNNYGIIWVRQAPGQGLEWMGWINTYTGKPTYAQKFQGRVTMTTDTSTSTAYMELSSLRSEDTAVYYCARKLFNTVAVTDNAMDYWGQGTTVTVSSASTKGPEVQLVQSGAEVKKPGASVKVSCKASGYTFTTYGVSWVRQAPGQGLEWMGEIYPGNYNTYYNEKFRGRVTMTTDTSTSTAYMELRSLRSDDTAVYYCARWRTSYFSDYGYFDYWGQGTTVTVSS
VL: DIQMTQSPSSLSASVGDRVTITCRASQDIENYLNWYQQKPGKAPKLLIYYTSRLQSGVPSRFSGSGSGTDFTLTISSLQPEDFATYFCQQGNTQPPTFGQGTKLEIKRTVAAPDVVMTQSPLSLPVTLGQPASISCRSSQSLVHSHGNTYLHWYQQRPGQSPRLLIYTVSNRFSGVPDRFSGSGSGTDFTLKISRVEAEDVGVYYCSQSTHVPYTFGGGTKVEIKR
notes: as for B1
Consider B7, for which the Kd was 6.9 pM, the koff is 1.2e-06 s⁻¹ and the kon is 170000 M⁻¹ s⁻¹.

B8: DVD3144 (bispecific antibody, IgG1)
VH: EVQLVESGGGLVQPGGSLRLSCAASGFTFSNYGVTWVRQAPGKGLEWVSMIWADGSTHYASSVKGRFTISRDNSKNTLYLQMNSLRAEDTAVYYCAREWQHGPVAYWGQGTLVTVSSASTKGPEVQLVQSGAEVKKPGASVKVSCKASGYTFTSYWMHWVRQAPGQGLEWIGNINPKGGSNIYNEKFQGRVTMTRDTSISTAYMELSRLRSDDTAVYYCARLDYFGDSFDLWGQGTTVTVSS
VL: DIQMTQSPSSLSASVGDRVTITCRASQLVSSAVAWYQQKPGKAPKLLIYWASARHTGVPSRFSGSGSGTDFTLTISSLQPEDFATYYCQQHYKTPFTFGQGTKLEIKRTVAAPDIQMTQSPSSLSASVGDRVTITCRASQGIRNYLNWYQQKPGKAPKLLIYYASNLEVGVPSRFSGSGSGTDYTLTISSLQPEDFATYYCQQDNRFPYTFGGGTKVEIKR
notes: as for B1
On to B8, for which the Kd was determined as 120 pM, the koff turned out to be 7.3e-06 s⁻¹ and the kon amounted to 62000 M⁻¹ s⁻¹.

B9: DVD3146 (bispecific antibody, IgG1)
VH: B8 VH
VL: DIQMTQSPSSLSASVGDRVTITCRASQLVSSAVAWYQQKPGKAPKLLIYWASARHTGVPSRFSGSGSGTDFTLTISSLQPEDFATYYCQQHYKTPFTFGQGTKLEIKRTVAAPSVFIFPPDIQMTQSPSSLSASVGDRVTITCRASQGIRNYLNWYQQKPGKAPKLLIYYASNLEVGVPSRFSGSGSGTDYTLTISSLQPEDFATYYCQQDNRFPYTFGGGTKVEIKR
notes: as for B1
In the case of B9, the Kd turned out to be 240 pM, the off-rate (koff) was 4.6e-05 s⁻¹ and the kon is 190000 M⁻¹ s⁻¹.

B10: DVD3154 (bispecific antibody, IgG1)
VH: B8 VH with T35E, M50G, S61D, S62T, G65S
VL: B8 VL with R24K, A53T, R54L, K93R
notes: as for B1
With B10, the Kd is 580 pM, the koff stood at 3e-05 s⁻¹ and the kon was determined as 53000 M⁻¹ s⁻¹.

B11: DVD3156 (bispecific antibody, IgG1)
VH: B8 VH with T35E, M50G, S61D, S62T, G65S
VL: B9 VL with R24K, A53T, R54L, K93R
notes: as for B1
On to B11, for which the Kd came to 340 pM, the koff was 5.4e-05 s⁻¹ and the kon was found to be 160000 M⁻¹ s⁻¹.

B12: DVD3087 (bispecific antibody, IgG1)
VH: EVQLVESGGGLVQPGGSLRLSCAASGFTFSNYGVTWVRQAPGKGLEWVSMIWADGSTHYASSVKGRFTISRDNSKNTLYLQMNSLRAEDTAVYYCAREWQHGPVAYWGQGTLVTVSSASTKGPSVFPLAPEVQLVQSGAEVKKPGASVKVSCKASGYTFTTYGVSWVRQAPGQGLEWMGEIYPGNYNTYYNEKFRGRVTMTTDTSTSTAYMELRSLRSDDTAVYYCARWRTSYFSDYGYFDYWGQGTTVTVSS
VL: DIQMTQSPSSLSASVGDRVTITCRASQLVSSAVAWYQQKPGKAPKLLIYWASARHTGVPSRFSGSGSGTDFTLTISSLQPEDFATYYCQQHYKTPFTFGQGTKLEIKRTVAAPDVVMTQSPLSLPVTLGQPASISCRSSQSLVHSHGNTYLHWYQQRPGQSPRLLIYTVSNRFSGVPDRFSGSGSGTDFTLKISRVEAEDVGVYYCSQSTHVPYTFGGGTKVEIKR
notes: as for B1
As to B12, the Kd was < 20 pM, the koff is < 1e-06 s⁻¹ and the kon stood at 51000 M⁻¹ s⁻¹.

B13: DVD3097 (bispecific antibody, IgG1)
VH: B12 VH with T35E, M50G, S61D, S62T, G65S
VL: B12 VL with R24K, A53T, R54L, K93R
notes: as for B1
Turning to B13, the Kd is < 21 pM, the koff was < 1e-06 s⁻¹ and the kon was found to be 48000 M⁻¹ s⁻¹.

In general, Kd refers to the equilibrium constant for the complex coming apart. The koff is a measure of how fast the partners let go of each other. The term kon denotes a measure of how fast the partners come together.
